# From the Immune Epitope Database (IEDB)
# Columns and labels:
# HLA-A*02:01 [1] = experiment: IEDB peptide-MHC binding, cellular MHC/competitive/fluorescence; ≥ and ≤ were set here for values at or beyond the usual limits of such assays
# HLA-A*02:02 = experiment: as above
# HLA-A*02:03 = experiment: as above
# HLA-A*68:02 [2] = experiment: as above; details: source organism: Vaccinia virus WR
# HLA-A*02:06 [3] = experiment: IEDB peptide-MHC binding, purified MHC/competitive/radioactivity; ≥ and ≤ were set here for values at or beyond the usual limits of such assays; details: source organism: Vaccinia virus WR
# HLA-A*02:06 [4] = experiment: IEDB peptide-MHC binding, cellular MHC/competitive/fluorescence; ≥ and ≤ were set here for values at or beyond the usual limits of such assays
# HLA-A*68:02 [5] = experiment: IEDB peptide-MHC binding, purified MHC/competitive/radioactivity; ≥ and ≤ were set here for values at or beyond the usual limits of such assays
# HLA-A*02:01 [6] = experiment: as above; details: source organism: Vaccinia virus WR
# [7] = source organism: Vaccinia virus WR
# [8] = source organism: Mammarenavirus choriomeningitidis
Sequence,IC50 (HLA-A*02:01 [1]; [7]) [µM],IC50 (HLA-A*02:02; [7]) [µM],IC50 (HLA-A*02:03; [7]) [µM],IC50 (HLA-A*68:02 [2]) [µM],IC50 (HLA-A*02:06 [3]) [µM],IC50 (HLA-A*02:06 [4]; [7]) [µM],IC50 (HLA-A*68:02 [5]; [7]) [µM],IC50 (HLA-A*02:01 [1]; [8]) [µM],IC50 (HLA-A*02:02; [8]) [µM],IC50 (HLA-A*02:03; [8]) [µM],IC50 (HLA-A*02:06 [4]; [8]) [µM],IC50 (HLA-A*68:02 [5]; [8]) [µM],IC50 (HLA-A*02:01 [6]) [µM]
DTDIVNNFIT,7.86,8.59,5.59,7.68,2.31,,,,,,,,
KVIKLVKSLV,24.9,14.3,13.4,16.2,2.15,,,,,,,,
HTKFWISDNT,≥ 70,21.5,60.2,,,≥ 70,0.623,,,,,,
FANVISKIYT,15.7,7.79,5.31,5.49,1.66,,,,,,,,
SARALKAYFT,58.4,21.6,7.81,,,25.7,4.15,,,,,,
PVVYHDDDNT,11.7,9.14,26.8,11.4,1.35,,,,,,,,
ETAIRAGYSI,5.99,25.8,29.3,,,17.8,0.134,,,,,,
EIVKNIREGT,11.8,28.5,8.53,,,60.7,0.431,,,,,,
HNASDFYGL,,,,,,,,15.5,6.51,≥ 70,21.8,0.147,
FVVNGHTCM,22.3,6.64,5.9,7.46,1.81,,,,,,,,
NVQSLIKFI,17.1,12.9,6.02,,,10.5,0.703,,,,,,
ELPVKTDIV,11.1,23,8.06,,,11.5,3.59,,,,,,
IAVSVYGAIT,,7.89,9.24,,,14.4,4.38,,,,,,
IAGLKIEEI,23.2,7.66,6.09,27.5,1.97,,,,,,,,
TTNNLLEQLI,,8.88,21,,,13.1,0.073,,,,,,4.93
FIDRGSIKI,6.95,9.72,12.2,48,4.03,,,,,,,,
VTPEYIKDL,9.23,10.4,≥ 70,≥ 70,1.76,,,,,,,,
KTNTKHCPKI,36.5,33.8,10.9,20,0.234,,,,,,,,
YVLFVKKML,5.15,31.1,12,11.4,2.54,,,,,,,,
KVEKYLPEVI,8.62,12.1,12.4,≥ 70,0.734,,,,,,,,
VIVPDIKLDA,22.6,33.5,21.4,≥ 70,0.883,,,,,,,,
NVTGFMEEEI,,10.3,5.14,,,17.6,1.48,,,,,,4.4
RQLTSNVDV,8.98,50.8,9.76,18.8,0.17,,,,,,,,
KTPVIVVPVI,12,9.09,6.2,36.5,1.89,,,,,,,,
PIPYSRVNHA,54,11.7,15.3,48.3,1.45,,,,,,,,
GVLPEETNI,17.3,17.3,20.4,12,0.573,,,,,,,,
ITLILSNKL,6.79,5.11,17.1,8.73,0.396,,,,,,,,
KTEHCDDFM,16.1,6.5,18.1,≥ 70,2.52,,,,,,,,
IIDLLLPST,5.65,15.1,10.3,≥ 70,1.12,,,,,,,,
RQQLEDIFM,10,5.73,26.9,≥ 70,0.944,,,,,,,,
